No end group written: not given here. *: point of attachment. Biotin = O=C1N[C@H]2[C@H](CS[C@H]2CCCCC(=O)*)N1
Target: T1, HLA-DR3 on VAVY cells (HLA-DRβ1-Arg74 positive) (Homo sapiens, UniProt P01903+P01911, A100K/A102G/A103R/A169T/F55Y/I96L/K41T/L162R/M171V/P40S/Q125H/Q178H/Q39Y/R42S/S66N/T106N/T262R/W38E/Y61H)
T1 construct: VAVY B-cell line that is homozygous for DR3 (confirmed to contain DRβ1-Arg74); host or cells: VAVY B-cell line
Assay: Tg.2098 peptide binding to VAVY cells, flow cytometry
Assay type: cell-based
Conditions: incubated without Ia (40% Captisol alone); biotinylated peptide
Procedure: VAVY cells (European Collection of Cell Cultures) were cultured in RPMI (ATCC, Manassas, Va.) supplied with 10% FBS (Sigma-Aldrich, St. Louis, Mo.), 1% Penicillin-Streptomycin (Corning, N.Y.), 2 mM glutamine (Corning, N.Y.) and […] ciprofloxacin hydrochloride (Hospira, Lake Forest, Ill.). Cells were grown at 37° C., 5% CO2 and passaged 1-2 times a week. Cells expressing DR2 (National Development and Research Institutes, Inc) were cultured using the same conditions as VAVY cells. N-terminal biotinylated peptide Tg.2098 was used to test for binding to VAVY cells which express HLA-DR3 on their surface (HLA-DRβ1-Arg74 positive). APC Streptavidin (BD Biosciences, Franklin Lakes, N.J.) was used to detect the biotinylated peptides. A scrambled peptide of Tg.2098 (scr2098) was used as a negative control. VAVY cells were seeded at 2.5×10^6 cells/mL in a 24-well plate (BD Biosciences) and pre-incubated for 7 hours with 0.025 mM of compound Ia or 40% Captisol (Ligand Pharmaceuticals, Inc, La Jolla, Calif.) [the vehicle used to dissolve test compound in this experiment], before 0.5 μM Tg.2098 was added. After 24 h incubation, cells were stained with PE mouse anti-human HLA-DR (BD Biosciences) and APC Streptavidin to detect binding of the peptide to VAVY cells and the inhibitory effect of Compound Ia. Inhibition was analyzed by flow cytometry. As a negative control, cells expressing HLA-DR2 were pre-incubated with example Ia or 40% Captisol, before biotinylated myelin basic protein (MBP) 87-99 (known binder to HLA-DR2) was added and incubated for 24 hours. HLA-DR2 cells were stained with PE mouse anti-human HLA-DR and APC Streptavidin to detect binding of biotinylated MBP87-99 to DR2 expressing cells and to assess the inhibitory effect of compound Ia on peptide binding. To confirm the ELISA results we performed binding inhibition studies using the VAVY B-cell line that is homozygous for DR3 (confirmed to contain DRβ1-Arg74). […]

T1 sequence (P01903 26-254, other chains not shown): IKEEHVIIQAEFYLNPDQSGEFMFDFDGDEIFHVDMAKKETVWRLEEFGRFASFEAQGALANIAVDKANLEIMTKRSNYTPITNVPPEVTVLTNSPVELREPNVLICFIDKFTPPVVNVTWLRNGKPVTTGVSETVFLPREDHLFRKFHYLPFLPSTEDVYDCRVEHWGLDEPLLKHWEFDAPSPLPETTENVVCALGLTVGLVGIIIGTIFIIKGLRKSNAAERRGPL

## HDLFSRIDSSVVVVP [scr.2098]
  binding of peptide to HLA-DR3-positive VAVY cells: 2.1%

## LSSVVVDPSIRHFDV (Biotin-LSSVVVDPSIRHFDV) [Tg.2098]
  binding of peptide to HLA-DR3-positive VAVY cells: 42.7%
